Test results: patent publication US20160144050A1 (PHAROSGEN, published 2016)
Primed or numbered codes have the meaning given here. No end group written: not given here. *: point of attachment. Hexanoyl(6-maleimido) = O=C1C=CC(=O)N1CCCCCC(=O)*; PABC′ = p-aminobenzylcarbamate

Tests used:
[1] = biological target: HSA-maleimide-KGDEVD-PABC-doxorubicin (SEQ ID NO: 28)
[2] = biological target: T1, human serum albumin (HSA) (human, UniProt P02768 25-609); assay: analytical HPLC; 100 µM conjugate with 700 µM purchased HSA in PBS, room temperature; covalent binding
T1 construct: also called commercially available human serum albumin; human serum albumin in human plasma
Protocol: A human serum albumin (HSA) solution was prepared in PBS at final concentration of 700 μM. […] The samples were subjected to analytical HPLC (see FIG. 21).

B1: recombinant human caspase-3 (protein)
chain: SGISLDNSYKMDYPEMGLCIIINNKNFHKSTGMTSRSGTDVDAANLRETFRNLKYEVRNKNDLTREEIVELMRDVSKEDHSKRSSFVCVLLSHGEEGIIFGTNGPVDLKKITNFFRGDRCRSLTGKPKLFIIQACRGTELDCGIETDSGVDDDMACHKIPVEADFLYAYSTAPGYYSWRNSKDGSWFIQSLCAMLKQYADKLEFMHILTRVNRKVATEFESFSFDATFHAKKQIPCIVSMLTKELYFYH
HPLC monitored cleavage; liberation of free doxorubicin [1]: The free doxorubicin was completely liberated from the HSA-maleimide-KGDEVD-PABC-doxorubicin (SEQ ID NO: 28) conjugate within 1 hour

B2: maleimide-KGDEVD-PABC-doxorubicin (SEQ ID NO: 10) (peptide)
peptide: K(Hexanoyl(6-maleimido))GDEVD-{PABC′-doxorubicin}
modifications: not fully specified (N-terminus)
notes: Peptide-drug prodrug conjugate
binding result [2]: binds
